Data published in publication doi:10.1101/2020.09.01.278291 (bioRxiv, 2020).

Target: LRH-1 ligand binding domain (LBD), residues 299-541, His tag cleaved (human, UniProt O00482 299-541)
Assay: crystal structure

LRH-1 ligand binding domain (LBD), residues 299-541, His tag cleaved, sequence (O00482 299-541): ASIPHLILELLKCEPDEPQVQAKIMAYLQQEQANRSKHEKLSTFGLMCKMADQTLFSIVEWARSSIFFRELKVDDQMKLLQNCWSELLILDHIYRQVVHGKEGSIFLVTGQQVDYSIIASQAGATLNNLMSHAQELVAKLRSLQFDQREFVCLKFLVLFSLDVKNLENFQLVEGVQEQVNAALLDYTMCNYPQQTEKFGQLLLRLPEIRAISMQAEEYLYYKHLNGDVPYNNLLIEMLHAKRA

binding result: binds
B1: Tif2 peptide (transcriptional intermediary factor 2 coregulator peptide) (peptide)
peptide: KENALLRYLLDK
